Results from patent US20260274981A1 (VIB VZW, published 2026).

T1: cynomolgus TfR overexpressed on CHO cells (cynomolgus monkey, UniProt Q5RDH6 1-760 (Pongo abelii entry))
T1 construct: construct is TfR followed by an HA tag and IRES-GFP; also called cynomolgus monkey TfR1; NHP TfR
T1 chain: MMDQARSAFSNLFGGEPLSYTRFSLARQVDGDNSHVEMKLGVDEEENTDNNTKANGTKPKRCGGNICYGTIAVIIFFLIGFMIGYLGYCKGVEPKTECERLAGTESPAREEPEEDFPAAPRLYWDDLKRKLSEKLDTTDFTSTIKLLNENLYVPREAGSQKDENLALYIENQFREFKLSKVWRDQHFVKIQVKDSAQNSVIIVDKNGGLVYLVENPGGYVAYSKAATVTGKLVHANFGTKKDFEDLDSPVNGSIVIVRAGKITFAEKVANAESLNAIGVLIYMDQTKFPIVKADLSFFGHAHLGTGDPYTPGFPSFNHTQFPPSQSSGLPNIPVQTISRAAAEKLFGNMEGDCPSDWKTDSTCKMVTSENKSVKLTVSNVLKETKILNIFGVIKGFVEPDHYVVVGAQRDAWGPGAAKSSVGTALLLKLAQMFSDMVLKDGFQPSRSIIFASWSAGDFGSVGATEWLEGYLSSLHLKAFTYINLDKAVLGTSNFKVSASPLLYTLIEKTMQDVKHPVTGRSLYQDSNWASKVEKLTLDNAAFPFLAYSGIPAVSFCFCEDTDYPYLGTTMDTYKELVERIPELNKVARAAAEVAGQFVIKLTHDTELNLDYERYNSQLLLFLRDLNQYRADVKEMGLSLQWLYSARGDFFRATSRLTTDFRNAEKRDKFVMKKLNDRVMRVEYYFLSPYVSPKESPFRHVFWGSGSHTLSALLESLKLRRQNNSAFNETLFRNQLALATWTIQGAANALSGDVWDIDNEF


Experiments:
[1] = target: T2, human TfR overexpressed on CHO cells (human, UniProt P02786 1-760); test: flow cytometry, first of two columns 'Binding to human TfR1 EC50 (M)' (second column: ND); paragraph 156 calls it the capacity to compete for binding on human TfR1, competitor not named
T2 construct: construct is TfR followed by an HA tag and IRES-GFP; also called hTfR; human transferrin receptor

[2] = target: T1, cynomolgus TfR overexpressed on CHO …; test: flow cytometry, first of two columns 'Binding to cyno TfR1 EC50 (M)' (second column: ND); paragraph 156 calls it the capacity to compete for binding on cynomolgus monkey TfR1, competitor not named
[3] = target: T3, recombinant human TfR (2474-TR, R&D Systems), biotinylated (human, UniProt P02786 89-760, biotinylated with EZ-Link NHS-PEG4-Biotinylation Kit); test: SPR (Biacore), biotinylated human TfR captured on an SA chip, VHH injected, 1:1 dissociation fit, pH 5.5
T3 construct: Bought protein; also called immobilized recombinant human TfR; biotinylated human TfR
T3 sequence (P02786 89-760 limits assumed): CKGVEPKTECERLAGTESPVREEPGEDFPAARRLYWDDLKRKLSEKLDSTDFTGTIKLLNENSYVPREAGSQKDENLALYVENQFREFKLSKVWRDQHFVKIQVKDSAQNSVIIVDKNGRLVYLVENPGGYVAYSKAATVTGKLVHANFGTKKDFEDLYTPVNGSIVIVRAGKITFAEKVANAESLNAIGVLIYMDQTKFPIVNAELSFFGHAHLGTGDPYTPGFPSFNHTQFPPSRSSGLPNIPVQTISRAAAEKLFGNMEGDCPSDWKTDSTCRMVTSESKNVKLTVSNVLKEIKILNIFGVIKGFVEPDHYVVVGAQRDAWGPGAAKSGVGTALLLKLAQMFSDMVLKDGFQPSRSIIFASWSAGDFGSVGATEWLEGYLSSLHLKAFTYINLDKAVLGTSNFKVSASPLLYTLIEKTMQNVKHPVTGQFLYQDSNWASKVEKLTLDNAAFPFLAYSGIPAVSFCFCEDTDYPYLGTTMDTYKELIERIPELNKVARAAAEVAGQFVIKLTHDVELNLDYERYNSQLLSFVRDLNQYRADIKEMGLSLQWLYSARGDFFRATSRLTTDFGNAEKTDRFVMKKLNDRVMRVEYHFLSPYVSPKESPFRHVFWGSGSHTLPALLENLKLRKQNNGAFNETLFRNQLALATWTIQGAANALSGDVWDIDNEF
Method: (§1) E. coli TG1 bacteria were transformed with those plasmids and expressions induced. Crude extracts were prepared and analyzed for binding by flow cytometry on human TfR overexpressing cells. […] Next, off rates of these selected variants were determined on recombinant human TfR by surface plasmon resonance (Biacore, Marlborough, Massachusetts, United States). Biotinylated human TfR was captured on a streptavidin-coated SA sensor chip (Cytiva). Increasing concentrations of nanobodies were sequentially injected in a single cycle at a flow rate of 30 μL/min. The dissociation was monitored for around 20 min. A reference flow was used as a control for non-specific binding and refractive index changes. Several buffer blanks were used for double referencing. Off rates were derived after fitting the experimental data to the 1:1 binding model with the Biacore Evaluation Software.
(§2) Surface Plasmon Resonance (SPR) was used to measure the interaction between VHHs and human or cynomolgus TfR receptor. Human TfR (2474-TR, R&D Systems) and cynomolgus TfR (90253-C07H, Sino Biological) were biotinylated with the EZ-Link NHS-PEG4-Biotinylation Kit (ThermoFischer Scientific) according to the manufacturer instructions. The binding experiments were performed at 25° C. on a Biacore T200 instrument (Cytiva, Uppsala, Sweden) in HBS-EP+ buffer (10 mM HEPES, 150 mM NaCl, 3 mM EDTA and 0.05% v/v Surfactant P20). Biotinylated human TfR and cynomolgus TfR were captured on a SA sensor chip (Cytiva) at a density of around 250 RU. Increasing concentrations of VHHs were sequentially injected in one single cycle at a flow rate of 30 μl/min. The dissociation was monitored for 20 min. […] A reference flow was used as a control for non-specific binding and refractive index changes. Several buffer blanks were used for double referencing. Binding affinities (KD) and kinetic rate constants (kₒₙ, koff) were derived after fitting the experimental data to the 1:1 binding model with the Biacore T200 Evaluation Software 3.1 using the single cycle kinetic procedure.

[4] = target: T3, recombinant human TfR (2474-TR, R&D …); test: SPR (Biacore), biotinylated human TfR captured on an SA chip, VHH injected, 1:1 dissociation fit, pH 7.4
Method: as §1, §2

[5] = target: T3, recombinant human TfR (2474-TR, R&D …); test: SPR (Biacore), ratio of the off rates on human TfR at the two pH values; the printed number equals kd at pH 5.5 divided by kd at pH 7.4
Method: as §1, §2

[6] = target: T1, cynomolgus TfR overexpressed on CHO …; test: flow cytometry, column 'Binding to cyno TfR1 EC50 (M)'; paragraph 156 calls it the capacity to compete for binding on cynomolgus monkey TfR1, competitor not named
[7] = target: T2, human TfR overexpressed on CHO cells; test: flow cytometry, column 'Binding to human TfR1 EC50 (M)'; paragraph 156 calls it the capacity to compete for binding on human TfR1, competitor not named

Binder | EC50 [1] [nM] | EC50 [2] [nM] | koff [3] [s⁻¹] | koff [4] [s⁻¹] | off-rate ratio kd pH5.5/kd pH7.4 [5] | EC50 [6] [nM] | EC50 [7] [nM]
BBB00533_h14 (VHH) VHH: EVQLVESGGGLVQPGGSLRLSCTASGRTFNYAMGWFRQAPGKNREFVATIDWKDGSSYYADSVKGRFTISRDDAKNTVYLQMNSLRPEDTAVYYCAVGEGDYCSTYTCAAEVEYDYWGQGTLVTVSS | 340 | 180 | – | – | – | – | –
BBB00738 (VHH, Histidine mutant) VHH: EVQLVESGGGLVQAGGSLRLSCAASGHIFSINAMGWYRQAPGKQRELVAVITSGGSTIYADSVKGRFTISRDNAENTVYLQMNSLRPEDTAVYYCNAHVGLKVPTIQELSLGFGSWGQGTLVTVSS | – | – | 0.0171 | 0.00918 | 1.86 | – | –
BBB00515_h1 (VHH) VHH: EVQLVESGGGLVQPGGSLRLSCAASGSIFSINAMGWYRQAPGKQRELVAVITSGGSTIYADSVKGRFTISRDNAENTVYLQMNSLRPEDTAVYYCNAHVGLKVPTIQELSLGFGSWGQGTLVTVSS | – | – | – | – | – | 26 | 120
BBB00767 (VHH, Histidine mutant) VHH: EVQLVESGGGLVQAGGSLRLSCAASGSIFSINAMGWYRQAPGKQRELVAVITSGGSTIYADSVKGRFTISRDNAENTVYLQMNSLRPEDTAVYYCNAHVGLKVPTIQELHLGFGSWGQGTLVTVSS | – | – | 0.0113 | 0.00507 | 2.23 | – | –
BBB00763 (VHH, also called histidine mutant of BBB00533) VHH: EVQLVESGGGLVQAGGSLRLSCAASGSIFSINAMGWYRQAPGKQRELVAVITSGGSTIYADSVKGRFTISRDNAENTVYLQMNSLRPEDTAVYYCNAHVGLKVPTHQELSLGFGSWGQGTLVTVSS | – | – | 0.022 | 0.00933 | 2.36 | – | –
BBB00740 (VHH, Histidine mutant) VHH: EVQLVESGGGLVQAGGSLRLSCAASGSIHSINAMGWYRQAPGKQRELVAVITSGGSTIYADSVKGRFTISRDNAENTVYLQMNSLRPEDTAVYYCNAHVGLKVPTIQELSLGFGSWGQGTLVTVSS | – | – | 0.0221 | 0.00954 | 2.32 | – | –
BBB00741 (VHH, also called histidine mutant of BBB00533) VHH: EVQLVESGGGLVQAGGSLRLSCAASGSIFHINAMGWYRQAPGKQRELVAVITSGGSTIYADSVKGRFTISRDNAENTVYLQMNSLRPEDTAVYYCNAHVGLKVPTIQELSLGFGSWGQGTLVTVSS | – | – | 0.0151 | 0.00551 | 2.74 | – | –
BBB00772 (VHH, Histidine mutant) VHH: EVQLVESGGGLVQAGGSLRLSCAASGSIFSINAMGWYRQAPGKQRELVAVITSGGSTIYADSVKGRFTISRDNAENTVYLQMNSLRPEDTAVYYCNAHVGLKVPTIQELSLGFGHWGQGTLVTVSS | – | – | 0.0141 | 0.00737 | 1.92 | – | –
BBB00515_h02 (VHH, The sheet prints E84K (IMGT) against BBB00515_h01; also called BBB00515_h2) VHH: EVQLVESGGGLVQPGGSLRLSCAASGSIFSINAMGWYRQAPGKQRELVAVITSGGSTIYADSVKGRFTISRDNAKNTVYLQMNSLRPEDTAVYYCNAHVGLKVPTIQELSLGFGSWGQGTLVTVSS | – | – | – | – | – | 23 | 67
BBB00745 (VHH, Histidine mutant) VHH: EVQLVESGGGLVQAGGSLRLSCAASGSIFSINAHGWYRQAPGKQRELVAVITSGGSTIYADSVKGRFTISRDNAENTVYLQMNSLRPEDTAVYYCNAHVGLKVPTIQELSLGFGSWGQGTLVTVSS | – | – | 0.0161 | 0.00773 | 2.08 | – | –
BBB00764 (VHH, Histidine mutant) VHH: EVQLVESGGGLVQAGGSLRLSCAASGSIFSINAMGWYRQAPGKQRELVAVITSGGSTIYADSVKGRFTISRDNAENTVYLQMNSLRPEDTAVYYCNAHVGLKVPTIHELSLGFGSWGQGTLVTVSS | – | – | 0.0206 | 0.0102 | 2.02 | – | –
BBB00770 (VHH, also called histidine mutant of BBB00533) VHH: EVQLVESGGGLVQAGGSLRLSCAASGSIFSINAMGWYRQAPGKQRELVAVITSGGSTIYADSVKGRFTISRDNAENTVYLQMNSLRPEDTAVYYCNAHVGLKVPTIQELSLGHGSWGQGTLVTVSS | – | – | 0.0245 | 0.00727 | 3.37 | – | –
BBB00771 (VHH, Histidine mutant) VHH: EVQLVESGGGLVQAGGSLRLSCAASGSIFSINAMGWYRQAPGKQRELVAVITSGGSTIYADSVKGRFTISRDNAENTVYLQMNSLRPEDTAVYYCNAHVGLKVPTIQELSLGFHSWGQGTLVTVSS | – | – | 0.0183 | 0.011 | 1.67 | – | –
BBB00739 (VHH, also called histidine mutant of BBB00533) VHH: EVQLVESGGGLVQAGGSLRLSCAASGSHFSINAMGWYRQAPGKQRELVAVITSGGSTIYADSVKGRFTISRDNAENTVYLQMNSLRPEDTAVYYCNAHVGLKVPTIQELSLGFGSWGQGTLVTVSS | – | – | 0.0223 | 0.00761 | 2.93 | – | –
BBB00756 (VHH, also called histidine mutant of BBB00533) VHH: EVQLVESGGGLVQAGGSLRLSCAASGSIFSINAMGWYRQAPGKQRELVAVITSGGSTIYADSVKGRFTISRDNAENTVYLQMNSLRPEDTAVYYCNAHHGLKVPTIQELSLGFGSWGQGTLVTVSS | – | – | 0.019 | 0.00735 | 2.58 | – | –
BBB00758 (VHH, also called histidine mutant of BBB00533) VHH: EVQLVESGGGLVQAGGSLRLSCAASGSIFSINAMGWYRQAPGKQRELVAVITSGGSTIYADSVKGRFTISRDNAENTVYLQMNSLRPEDTAVYYCNAHVGHKVPTIQELSLGFGSWGQGTLVTVSS | – | – | 0.0657 | 0.00908 | 7.24 | – | –
BBB00515_h04 (VHH, The sheet prints E1D and E84K (IMGT) against BBB00515_h01; also called BBB00515_h4) VHH: DVQLVESGGGLVQPGGSLRLSCAASGSIFSINAMGWYRQAPGKQRELVAVITSGGSTIYADSVKGRFTISRDNAKNTVYLQMNSLRPEDTAVYYCNAHVGLKVPTIQELSLGFGSWGQGTLVTVSS | – | – | – | – | – | 22 | 60
